Measurements from US20230340152A1 (published 2023).
Numbering of substitutions follows the chain as printed. In names and notes the source's numbering stands.

T1: Human CD73 ECD (human, UniProt P21589 27-549)
T1 construct: Biotinylated in some assays; also called human CD73 extracellular domain; huCD73
T1 sequence: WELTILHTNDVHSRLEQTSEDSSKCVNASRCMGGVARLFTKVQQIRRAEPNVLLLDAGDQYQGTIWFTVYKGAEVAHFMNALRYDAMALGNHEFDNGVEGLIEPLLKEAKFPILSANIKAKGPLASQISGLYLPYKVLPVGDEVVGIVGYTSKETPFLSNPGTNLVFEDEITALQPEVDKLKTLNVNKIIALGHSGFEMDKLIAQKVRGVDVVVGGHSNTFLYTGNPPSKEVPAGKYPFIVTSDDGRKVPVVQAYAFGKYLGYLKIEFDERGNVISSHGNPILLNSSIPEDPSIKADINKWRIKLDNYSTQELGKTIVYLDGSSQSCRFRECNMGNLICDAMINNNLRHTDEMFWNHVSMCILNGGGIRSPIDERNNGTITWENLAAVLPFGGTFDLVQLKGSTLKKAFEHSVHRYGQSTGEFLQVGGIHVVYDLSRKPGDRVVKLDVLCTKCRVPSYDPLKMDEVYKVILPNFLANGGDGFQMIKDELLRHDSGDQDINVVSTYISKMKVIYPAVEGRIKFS

T2: Cynomolgus CD73 ECD (cynomolgus, UniProt A0A2K5V5U7 27-549)
T2 construct: extracellular domain; also called cyno CD73
T2 sequence: T1 sequence with M199T, T350A, V466I

T3: Murine CD73 ECD (murine, UniProt Q61503 29-551, limits assumed)
T3 construct: extracellular domain; In-house recombinant ECD; also called murine CD73 extracellular domain; muCD73
T3 sequence (looked up): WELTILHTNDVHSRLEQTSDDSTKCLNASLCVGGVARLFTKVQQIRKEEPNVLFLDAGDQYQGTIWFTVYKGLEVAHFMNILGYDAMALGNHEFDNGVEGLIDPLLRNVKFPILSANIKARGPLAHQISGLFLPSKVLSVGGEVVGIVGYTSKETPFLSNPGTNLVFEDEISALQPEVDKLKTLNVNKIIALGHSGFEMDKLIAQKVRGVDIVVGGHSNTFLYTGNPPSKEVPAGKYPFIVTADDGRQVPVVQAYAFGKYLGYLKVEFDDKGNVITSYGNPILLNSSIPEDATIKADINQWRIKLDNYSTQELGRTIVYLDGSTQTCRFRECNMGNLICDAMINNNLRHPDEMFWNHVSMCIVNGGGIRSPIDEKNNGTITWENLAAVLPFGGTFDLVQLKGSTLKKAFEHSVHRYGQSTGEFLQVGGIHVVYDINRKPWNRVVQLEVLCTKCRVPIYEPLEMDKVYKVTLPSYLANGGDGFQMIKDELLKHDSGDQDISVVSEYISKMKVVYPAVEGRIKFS

T4: Human CD73 on cells (MDA-MB-231, Jurkat CD73 knock-in, NCI-H322) (human, UniProt P21589 27-549)
T4 construct: GPI-anchored native protein; also called native human CD73
T4 sequence: T1 sequence

T5: Murine CD73 on cells (4T1, Jurkat mCD73 knock-in) (murine, UniProt Q61503 29-551)
T5 construct: whole, on cells; also called 4T1 (murine)
T5 sequence (looked up): T3 sequence (looked up)

T6: Cynomolgus CD73 on MK-1 cells (cynomolgus, UniProt A0A2K5V5U7 27-549)
T6 construct: whole, on cells; also called MK-1 (cyno)
T6 sequence: T1 sequence with M199T, T350A, V466I

B1: CD730010 (antibody, V domains shown)
VH: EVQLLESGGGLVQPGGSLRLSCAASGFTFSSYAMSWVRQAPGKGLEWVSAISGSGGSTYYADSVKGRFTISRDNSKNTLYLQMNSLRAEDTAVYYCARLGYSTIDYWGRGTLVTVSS
VL: LPVLTQPPSVSGTPGQRVTISCSGSLSNIGRNPVNWYKQVPGTAPKLLIYLNNQRPSGVPDRFSGSKSGTSASLAISGLQSEDEADYYCATWDDSLNGWLFGGGTKLTVL
notes: IgG1-TM format (L234F, L235E, P331S); also called CD730010 antibody; clone 10
B2: Clone D3 Fab (Fab, V domains shown)
VH: EVQLLESGGGLVQPGGSLRLSCAASGFTFSSYAYSWVRQAPGKGLEWVSAISGSGGRTYYADSVKGRFTISRDNSKNTLYLQMNSLRAEDTAVYYCARLGYSTIDLWGRGTLVTVSS
VL: B1 VL with L1Q, P2S, V10A, K38Q, V40L, N52D, Q54L, P56L, N97I
notes: Bacterial Fab from the combinatorial library
B3: 73combo1 (C1+GRVE+HPT) (antibody, V domains shown)
VH: B2 VH with R57S, S102G, T103R, I104V, L106E
VL: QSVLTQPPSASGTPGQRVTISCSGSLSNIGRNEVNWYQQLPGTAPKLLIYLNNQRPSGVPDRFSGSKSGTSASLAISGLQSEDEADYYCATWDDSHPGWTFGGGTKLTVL
notes: IgG1-TM format; also called 73combol; clone 10 combo1
B4: CD730002 (antibody, V domains shown)
VH: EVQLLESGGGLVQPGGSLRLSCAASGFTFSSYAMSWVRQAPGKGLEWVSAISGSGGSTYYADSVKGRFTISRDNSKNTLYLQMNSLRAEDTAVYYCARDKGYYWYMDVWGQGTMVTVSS
VL: QSVLTQPPSVSVSPGQTATITCSGDKVGDKYASWYQQKPGQSPVLVIYEDTKRPSRIPERFSGSNSGNTATLTISGTQALDEADYFCQAWDTSFWVFGGGTKLTVL
notes: IgG1-TM format; also called CD730002 antibody; clone 2
B5: CD730002 SGMY (antibody, IgG1, V domains shown)
VH: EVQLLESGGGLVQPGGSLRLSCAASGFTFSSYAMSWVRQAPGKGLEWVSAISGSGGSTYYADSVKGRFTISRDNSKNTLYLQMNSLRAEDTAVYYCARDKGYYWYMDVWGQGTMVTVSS
VL: B4 VL with T19S, R56G, L80M, F86Y
notes: IgG1-TM; non-germlined VH, fully germlined VL (S20, G57, M81, Y87); also called Clone 2 SGMY
B6: CD730002 2C5 (antibody, V domains shown)
VH: EVQLLESGGGLVQPGGSLRLSCAASGFTFSSYAMSWVRQAPGKGLEWVSAISGSGGSTYYADSVKRRFTISRDNSKNTLYLQMNSLRAEDTAVYYCARDKGYYWYMDVWGQGTMVTVSS
VL: B4 VL with T19S, P54L, R56G, L80M, F86Y
notes: IgG1-TM format; also called clone 2C5 antibody

Assays:
Human CD73 ECD [1] = biological target: T1, Human CD73 ECD; experiment: SPR (Proteon)
Cynomolgus CD73 ECD [2] = biological target: T2, Cynomolgus CD73 ECD; experiment: SPR (Proteon)
Murine CD73 ECD [3] = biological target: T3, Murine CD73 ECD; experiment: SPR (Proteon)
[4] = biological target: CD73 (species and format not stated); experiment: binding assay not stated
[5] = biological target: T4, Human CD73 on cells (MDA-MB-231, Jurkat …); experiment: flow cytometry on cells
[6] = biological target: T5, Murine CD73 on cells (4T1, Jurkat mCD73 …); experiment: flow cytometry on cells
Human CD73 ECD [7] = biological target: T1, Human CD73 ECD; experiment: binding assay, format not stated
Cynomolgus CD73 ECD [8] = biological target: T2, Cynomolgus CD73 ECD; experiment: binding assay, format not stated
Murine CD73 ECD [9] = biological target: T3, Murine CD73 ECD; experiment: binding assay, format not stated
Human CD73 ECD [10] = biological target: T1, Human CD73 ECD; experiment: cell-based or functional assay
[11] = biological target: T4, Human CD73 on cells (MDA-MB-231, Jurkat …); experiment: cell-based or functional assay
Human CD73 ECD [12] = biological target: T1, Human CD73 ECD; experiment: capture ELISA and direct ELISA, normalized Fab supernatants
Murine CD73 ECD [13] = biological target: T3, Murine CD73 ECD; experiment: as above
[14] = biological target: T4, Human CD73 on cells (MDA-MB-231, Jurkat …); experiment: cell-based or functional assay; remark: listed apart in the source
[15] = biological target: T5, Murine CD73 on cells (4T1, Jurkat mCD73 …); experiment: cell-based or functional assay
[16] = biological target: T6, Cynomolgus CD73 on MK-1 cells; experiment: flow cytometry on cells
Murine CD73 ECD [17] = biological target: T3, Murine CD73 ECD; experiment: binding to recombinant murine CD73 by flow cytometry, IgG1-TM
Human CD73 ECD [18] = biological target: T1, Human CD73 ECD; experiment: binding to recombinant human CD73 by flow cytometry, IgG1-TM
[19] = biological target: T4, Human CD73 on cells (MDA-MB-231, Jurkat …); experiment: flow cytometry on MDA-MB-231 cells, IgG from 293F cells

Row | Binder | Kd (Human CD73 ECD [1]) | Kd (Cynomolgus CD73 ECD [2]) | Kd (Murine CD73 ECD [3]) | Kd [5] | Kd [6] | 1/EC50 (Human CD73 ECD [7]) | 1/EC50 (Cynomolgus CD73 ECD [8]) | 1/EC50 (Murine CD73 ECD [9]) | Enzyme Inhibition, rCD73, 1/EC50 (nM) (Human CD73 ECD [10]) | Enzyme Inhibition, MDA-MB-231, 1/EC50 (nM) [11] | Internalization, MDA-MB-231, 1/EC50 (nM) [11] | FabZAP internalization, EC50, MDA-MB-231 [14] | FabZAP internalization, maximum toxicity, MDA-MB-231 [14] | FabZAP internalization, EC50, 4T1 [15] | FabZAP internalization, maximum toxicity, 4T1 [15] | Kd [16] | other results
1 | B1 | 3.58 nM | 1.92 nM | 2.47 nM | 8 nM | 6.1 nM | 0.0034 nM⁻¹ | 0.0033 nM⁻¹ | 0.0024 nM⁻¹ | 0.0062 nM⁻¹ | 0.33 nM⁻¹ | 0.0062 nM⁻¹ |  |  |  |  |  | EC50 [4]: 69 nM
2 | B2 |  |  |  |  |  |  |  |  |  |  |  |  |  |  |  |  | binding result (Human CD73 ECD [12]): binds; binding result (Murine CD73 ECD [13]): binds
3 | B3 | 0.007 nM | 0.008 nM | 0.002 nM | 0.157 nM | 0.15 nM |  |  |  |  |  |  | 0.0038 nM | 97% | 0.0331 nM | 97% | 0.09 nM | 
4 | B4 | 0.007 nM | 0.015 nM | 0.04 nM | 0.052 nM | 0.05 nM | 0.1 nM⁻¹ | 0.2 nM⁻¹ | 0.024 nM⁻¹ | 0.021 nM⁻¹ | 12 nM⁻¹ | 0.021 nM⁻¹ | 0.0071 nM | 95% | 0.206 nM | 83% | 0.052 nM | 
5 | B5 |  |  |  |  |  |  |  |  |  |  |  |  |  |  |  |  | binding result (Murine CD73 ECD [17]): binds; binding result (Human CD73 ECD [18]): binds
6 | B6 | 0.009 nM | 0.009 nM | 0.022 nM | 0.084 nM | 0.055 nM |  |  |  |  |  |  | 0.0091 nM | 98% | 0.173 nM | 82% | 0.063 nM | fold lower EC50 than parental CD730002SGMY [19]: 3 fold
